Laboratory results: patent US20260049144A1 (Johns Hopkins, published 2026)

Assays:
PD-L1 on cells [1] = target: PD-L1 on cells (UniProt Q9NZQ7); assay: equilibrium binding to cells (method 'Cell'; cell line not stated)
PD-L1 on cells [2] = target: PD-L1 on cells (UniProt Q9NZQ7); assay: cell-based or functional assay
[3] = target: T1, PD-L1 extracellular domain (ECD) (UniProt Q9NZQ7 19-238, limits assumed); assay: BLI competition: B8 VNAR immobilized on the tip, 100 nM PD-L1, soluble B8 VNAR titrated as competitor
T1 construct: extracellular domain; Soluble PD-L1 used in the yeast-display titrations and in BLI; Tags or biotinylation are not described; also called Programmed death-ligand 1; CD274
T1 sequence (Q9NZQ7 19-238 limits assumed): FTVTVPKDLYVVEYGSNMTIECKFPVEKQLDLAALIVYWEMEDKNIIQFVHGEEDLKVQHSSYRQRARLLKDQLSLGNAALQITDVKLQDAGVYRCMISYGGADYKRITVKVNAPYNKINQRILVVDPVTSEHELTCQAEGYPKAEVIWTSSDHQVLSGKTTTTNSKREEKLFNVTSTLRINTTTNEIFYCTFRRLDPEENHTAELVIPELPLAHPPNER

[4] = target: T1, PD-L1 extracellular domain (ECD); assay: yeast-displayed clone, soluble PD-L1 titration, flow cytometry
[5] = target: T1, PD-L1 extracellular domain (ECD); assay: BLI, equilibrium binding, soluble fragment on immobilized PD-L1

Chain of PD-L1 on cells (Q9NZQ7 19-290 limits assumed): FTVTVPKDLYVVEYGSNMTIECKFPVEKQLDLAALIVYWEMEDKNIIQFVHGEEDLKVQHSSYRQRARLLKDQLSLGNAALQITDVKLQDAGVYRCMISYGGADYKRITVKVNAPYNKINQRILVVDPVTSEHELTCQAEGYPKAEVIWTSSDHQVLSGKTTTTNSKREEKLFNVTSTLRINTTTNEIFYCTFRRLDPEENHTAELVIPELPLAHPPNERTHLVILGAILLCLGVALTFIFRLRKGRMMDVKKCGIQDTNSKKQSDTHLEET

| Binder | Kd [4] [nM] | Kd [5] [nM] | other results |
| --- | --- | --- | --- |
| TS1521 (VNAR, part only; not given: atezolizumab heavy and light chains, part only) heavy, part: ARVDQTPQTITKETGESLTINCVLRDASYALGSTCWYRKKSGSTNEESISIGGRYVETVNSGSKSFSLRINDLTVEDSGTYRCGVDSWCPPVCSWAYAGCGDGTAVTVNGGGGSGGGGSGGGGS light, part: GGGGSGGGGSARVDQTPQTITKETGESLTINCVVRDTACALVRTFWYRKKSGSTNEESISKGGRYVETVNRGSKSFSLRINDLTVEDSGTYRCKVFGWCRMRDVYGGGTVVTVN |  |  | Kd (PD-L1 on cells [1]): 0.204 nM; TCR activation (NFAT-induced luminescence), FC50, antibody continuously present (PD-L1 on cells [2]): 0.51 nM; TCR activation (NFAT-induced luminescence), potency, antibody removed before addition of effector cells (PD-L1 on cells [2]): 0.95 nM; reduction in TCR activation potency, continued presence versus removal of antibody (PD-L1 on cells [2]): 1.9 fold |
| B8 VNAR (VNAR, VNAR (shark single domain); Measured on yeast and as a soluble fragment (BLI); Not the same as B8 scFv) VNAR: ARVDQTPQTITKETGESLTINCVLRDASYALGSTCWYRKKSGSTNEESISIGGRYVETVNSGSKSFSLRINDLTVEDSGTYRCGVDSWCPPVCSWAYAGCGDGTAVTVN | 97.3 | 33.5 | IC50 (read off the curve) [3]: ~100 nM |
| C7 VNAR (VNAR, Not the same as C7 scFv) VNAR: ARVDQTPQTITKETGESLTINCVVRDSACALVRTFWYRKKSGSTNEESISKGGRYVETVNSGSKSFSLRINDLTVEDSGTYRCKVFGWCRMRDVYGGGTVVTVN | 400 |  |  |
| A9 VNAR (VNAR, VNAR (shark variable new antigen receptor single domain) from nurse sharks immunised with the PD-L1 ECD; Measured on yeast and as a soluble fragment (BLI)) VNAR: ARVDQTPQTITKETGESLTINCVVRDTACALVRTFWYRKKSGSTNEESISKGGRYVETVNRGSKSFSLRINDLTVEDSGTYRCKVFGWCRMRDVYGGGTVVTVN | 225 | 127 |  |
| C4 VNAR (VNAR) VNAR: ARVDQTPLTITKETGESLTINCVLRDSNCALSSTYWYRKSSGSTNEEIISKGGRYVETVNSGSNSFSLRINDLTVEDSGTYRCKVFGWCRMRDVYGGGTVVTVN | > 1000 |  |  |
| B11 VNAR (VNAR) VNAR: ARVDQTPQTITKETGESLTINCVLRDSNCALSSTYWYRKKSGSTNEESISKGGRYVETVNSGSKSFSLRINDLTVEDSGTYRCRLFVSWLSDYDCATYYVSGGGTVVTVN | > 1000 |  |  |
